Reference: patent US20230046834A1 (BROWN UNIVERSITY, published 2023)
One block for each binder: values may come before it.

What was measured:
[1] = target: T1, recombinant human (rh) CHI3L1 (human, UniProt P36222 22-383); experiment: competitive ELISA
T1 construct: Recombinant protein; also called human CHI3L1; chitinase 3-like-1

[2] = target: T2, recombinant human (rh) CTLA4 (human, UniProt P16410 36-161, limits assumed); experiment: competitive ELISA
T2 construct: Recombinant protein; also called human CTLA4; CD152
T2 sequence (looked up): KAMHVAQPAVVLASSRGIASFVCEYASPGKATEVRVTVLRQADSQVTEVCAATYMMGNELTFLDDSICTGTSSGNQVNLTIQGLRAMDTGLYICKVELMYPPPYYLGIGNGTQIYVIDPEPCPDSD

T1 sequence (P36222 22-383 limits assumed): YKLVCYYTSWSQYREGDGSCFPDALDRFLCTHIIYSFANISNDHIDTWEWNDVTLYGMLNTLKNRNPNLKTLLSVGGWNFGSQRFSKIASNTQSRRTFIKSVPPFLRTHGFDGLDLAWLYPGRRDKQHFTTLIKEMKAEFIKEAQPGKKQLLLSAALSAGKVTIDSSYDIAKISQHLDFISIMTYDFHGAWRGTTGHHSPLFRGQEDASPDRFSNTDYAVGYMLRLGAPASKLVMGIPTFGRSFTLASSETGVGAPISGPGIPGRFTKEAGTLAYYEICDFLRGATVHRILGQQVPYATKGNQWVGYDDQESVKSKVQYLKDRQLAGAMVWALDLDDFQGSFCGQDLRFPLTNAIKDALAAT

Kd [1]: ~1 nM | limit of detection (LOD) [1]: 2 ng/mL | Kd [2]: ~1 nM | limit of detection (LOD) [2]: 2 ng/mL
B1: CHI3L1-LC-CTLA4 bispecific antibody (ScFv-CTLA4 attached to the light chain of the anti-human CHI3L1 antibody FRG) (bispecific antibody)
chain 1: QVQLQQSGAELMKPGASVKISCRTTGYTFSSYWIEWVKQRPGHGLEWIGEILPGSGSTNCNEKFKGKATFTADTSSNTAYMQLSSLTSEDSAVYYCVRSDDYYDYWGQGTTLTVSS
chain 2: DVLMTQTPLSLPVSLGDQASISCRSSQTIVHSNGNTYLEWYLQKPGQSPKLLIYKVSNRFSGVPDRFSGSGSGTDFTLKISRVEAEDLGVYYCFQGSHVPPTFGGGTKLEIKVEGGSGGSGGSGGSGGVDQVQLVQSGAEVVQPGRSLRLSCAASGFTFSSYTMHWVRQAPGKGLEWVTFISYDGNNKYYADSVKGRFTISRDNSKNTLYLQMNSLRSEDTAVYYCARTGWLGPFDYWGQGTLVTVSSGGGGSGGGGSGGGGSGGGGSEIVLTQSPATLSLSPGERATLSCRASQSVGSSYLAWYQQKPGQAPRLLIYGAFSRATGIPARFSGSGSGTDFTLTISSLEPEDFAVYYCQQYGSSPWTFGQGTKVEIK

Kd [1]: ~1 nM | limit of detection (LOD) [1]: 2 ng/mL
B2: anti-human CHI3L1 antibody (called "CHI3L1" or "FRG") (antibody, V domains shown)
VH: B1 chain 1
VL: DVLMTQTPLSLPVSLGDQASISCRSSQTIVHSNGNTYLEWYLQKPGQSPKLLIYKVSNRFSGVPDRFSGSGSGTDFTLKISRVEAEDLGVYYCFQGSHVPPTFGGGTKLEIK

Kd [1]: ~1 nM | limit of detection (LOD) [1]: 2 ng/mL | Kd [2]: ~1 nM | limit of detection (LOD) [2]: 2 ng/mL
B3: CHI3L1-HC-CTLA4 bispecific antibody (ScFv-CTLA4 attached to the heavy chain of the anti-human CHI3L1 antibody FRG) (bispecific antibody)
chain 1: QVQLQQSGAELMKPGASVKISCRTTGYTFSSYWIEWVKQRPGHGLEWIGEILPGSGSTNCNEKFKGKATFTADTSSNTAYMQLSSLTSEDSAVYYCVRSDDYYDYWGQGTTLTVSSVEGGSGGSGGSGGSGGVDQVQLVQSGAEVVQPGRSLRLSCAASGFTFSSYTMHWVRQAPGKGLEWVTFISYDGNNKYYADSVKGRFTISRDNSKNTLYLQMNSLRSEDTAVYYCARTGWLGPFDYWGQGTLVTVSSGGGGSGGGGSGGGGSGGGGSEIVLTQSPATLSLSPGERATLSCRASQSVGSSYLAWYQQKPGQAPRLLIYGAFSRATGIPARFSGSGSGTDFTLTISSLEPEDFAVYYCQQYGSSPWTFGQGTKVEIK
chain 2: B2 VL
